We go through 4 molecules from publication PMC11407943, “Cdc14 phosphatases use an intramolecular pseudosubstrate motif to stimulate and regulate catalysis” (The Journal of Biological Chemistry, 2024).

The nature of series [1]: Steady-state kinetics of Cdc14 enzyme variants toward DiFMUP.
Protocol: B, initial velocities as a function of increasing DiFMUP concentration were measured under steady-state conditions for the indicated ScCdc14 variants. […] Data are average values from at least three independent measurements. Error bars are SDs. Lines are best fits for the Michaelis–Menten equation. C, to better visualize differences in KM, all Vmax values from data in panel A were normalized to 1. D, top: the general PTP-catalyzed reaction scheme with associated rate constants ([50]), where E is enzyme, S is phosphorylated substrate, P is dephosphorylated product, Pi is inorganic phosphate, and E-Pi is the covalent phosphoenzyme intermediate. For simplicity, the reverse catalytic steps are omitted and considered negligible under our experimental conditions. Bottom: definitions of kcat and KM for enzymes following the two step PTP reaction mechanism ([47]). E, a representative presteady-state reaction progress graph for reaction of the indicated ScCdc14 enzyme variants with 200 μM DiFMUP, measured in a stopped flow spectrofluorometer. Data were fit with Equation 1 (see Experimental procedures) to generate rates of the burst phase (kburst) of the reaction. F, kburst was plotted as a function of substrate concentration from presteady-state kinetic measurements with the substrate DiFMUP and the indicated ScCdc14 enzyme variants. Data are averages of three independent measurements and error bars are SDs. Data were fit in GraphPad Prism with Equation 2 (Experimental procedures).
D–E, steady-state kinetic analyses with hCdc14A enzyme variants toward DiFMUP as in Figure 2, B and C. […] In E, Vmax values from data in panel D were normalized to 1 to show differences in KM.
Data from velocity versus substrate concentration plots were fit with the Michaelis–Menten equation in GraphPad Prism (https://www.graphpad.com/) to determine steady-state kinetic parameters kcat and KM. For trans peptide stimulation assays, DiFMUP was used at a single concentration well above the measured KM for each enzyme.
The nature of series [2]: Catalytic efficiency (kcat/KM) on pooled phosphopeptides by LC-MS. The settings on record: 375 nM each pooled phosphopeptide, 30 °C, 10 to 40 min; for catalytic efficiency (kcat/KM) for high affinity substrates: enzyme 0.1–1 μM, at least four independent measurements.
Protocol: Cdc14 catalytic efficiencies toward a pooled set of phosphopeptide variants were measured by LC-MS exactly as described ([49]). […] Reactions were initiated by addition of Cdc14 enzymes (0.1–1 μM final concentration) in 200 μl Cdc14 reaction buffer and incubated at 30 °C for 10 to 40 min 60 μl aliquots were removed and mixed with an equal volume 5% formic acid at desired times to terminate the reactions. Peptides were desalted on C18 spin columns (Thermo Fisher Scientific) and dried by vacuum centrifugation prior to LC-MS analysis on an LTQ Orbitrap Velos mass spectrometer. Extracted ion chromatograms for each substrate and product peptide were generated and integrated using Skyline software ([65]) (https://skyline.ms/project/home/begin.view) and catalytic efficiency calculations from the data were performed as described ([28], [47]).
The conditions of series [3]: cited from earlier work.
Description: To experimentally characterize the SLiCE motif mechanism, we expressed and purified several recombinant ScCdc14 enzyme variants (Figs. 2A and S2A).
Series [4] is described as follows: Presteady-state (stopped-flow) kinetics of Cdc14 enzyme variants with DiFMUP. The class given is biochemical. The following applies: 23 °C, 200 μM DiFMUP in representative ScCdc14 progress curve, compared to ScCdc14^1-449. The procedure: SLiCE motif is boxed in gray.
Presteady-state kinetic analysis was performed as described previously ([34]). Enzymes were exchanged into Cdc14 reaction buffer using a desalting column and flash-frozen in liquid nitrogen. Prior to use, aliquots were thawed and clarified at 16,000g for 5 min to remove any insoluble material and protein concentration was subsequently determined by Bradford assay. Presteady-state measurements were made by mixing enzyme and varying DiFMUP concentrations at 23 °C on an SFM-3000 stopped-flow instrument equipped with a MOS-200/M spectrophotometer (BioLogic) as described ([64]). The excitation wavelength was 390-nm and emission was selected using a 409-nm long pass filter (Semrock FF02-409/LP-25). A standard curve was generated by measuring the fluorescence of defined concentrations of the product DiFMU reconstituted in Cdc14 reaction buffer under identical conditions. Raw data were fit with Equation 1 in Prism:(1) Y=At+B(1−e^−bt)+C

Setting [5] is: DiFMUP, pH 7.5, 30 °C, S429 phosphosite mutant series, printed "(Fig. 6)" for ScCdc141-449.

Changes are numbered by the printed parent chain. Names and notes keep the numbering of the source.

B1: ScCdc14^S429E (protein, UniProt Q00684 1-551, looked up, variant S429E)
Tyrosine-protein phosphatase …: MRRSVYLDNTIEFLRGRVYLGAYDYTPEDTDELVFFTVEDAIFYNSFHLDFGPMNIGHLYRFAVIFHEILNDPENANKAVVFYSSASTRQRANAACMLCCYMILVQAWTPHQVLQPLAQVDPPFMPFRDAGYSNADFEITIQDVVYGVWRAKEKGLIDLHSFNLESYEKYEHVEFGDFNVLTPDFIAFASPQEDHPKGYLATKSSHLNQPFKSVLNFFANNNVQLVVRLNSHLYNKKHFEDIGIQHLDLIFEDGTCPDLSIVKNFVGAAETIIKRGGKIAVHCKAGLGRTGCLIGAHLIYTYGFTANECIGFLRFIRPGMVVGPQQHWLYLHQNDFREWKYTTRISLKPSEAIGGLYPLISLEEYRLQKKKLKDDKRVAQNNIEGELRDLTMTPPSNGHGALSARNSSQPSTANNGSNSFKSSAVPQTEPGQPRKGQNGSNTIEDINNNRNPTSHANRKVVIESNNSDDESMQDTNGTSNHYPKVSRKKNDISSASSSRMEDNEPSATNINNAADDTILRQLLPKNRRVTSGRRTTSAAGGIRKISGSIKK
With B1, in series [1] (setting [5]), the kcat turned out to be 0.15 ± 0.01 s⁻¹.

B2: ScCdc14^1-449: truncation of S. cerevisiae Cdc14 that retains the SLiCE motif (protein)
chain: MRRSVYLDNTIEFLRGRVYLGAYDYTPEDTDELVFFTVEDAIFYNSFHLDFGPMNIGHLYRFAVIFHEILNDPENANKAVVFYSSASTRQRANAACMLCCYMILVQAWTPHQVLQPLAQVDPPFMPFRDAGYSNADFEITIQDVVYGVWRAKEKGLIDLHSFNLESYEKYEHVEFGDFNVLTPDFIAFASPQEDHPKGYLATKSSHLNQPFKSVLNFFANNNVQLVVRLNSHLYNKKHFEDIGIQHLDLIFEDGTCPDLSIVKNFVGAAETIIKRGGKIAVHCKAGLGRTGCLIGAHLIYTYGFTANECIGFLRFIRPGMVVGPQQHWLYLHQNDFREWKYTTRISLKPSEAIGGLYPLISLEEYRLQKKKLKDDKRVAQNNIEGELRDLTMTPPSNGHGALSARNSSQPSTANNGSNSFKSSAVPQTSPGQPRKGQNGSNTIEDINNN
modifications: left off: 6xHis, N-terminal, state not stated
For the molecule B2, in series [1] (setting [5]), the kcat came to 1.71 ± 0.24 s⁻¹. The “catalytic efficiency (kcat/KM) for high affinity substrates” value in series [2] was “indistinguishable”. Besides, the “activity compared with full-length ScCdc14” value in series [3] is “indistinguishable from full-length ScCdc14”.

B3: ScCdc14^P433A/K435A: SLiCE motif point mutant generated in ScCdc14^1-449 (protein)
chain: B2 chain with P433A, K435A
modifications: left off: 6xHis, N-terminal, state not stated
Turning to B3, the catalytic constant (kcat) in series [1] (pH 7.5) was 0.27 ± 0.03 s⁻¹. Moreover, the “catalytic efficiency (kcat/KM) for low affinity substrates” value in series [2] (compared to ScCdc14^1-449) was “modest, but consistent and statistically significant, increase in catalytic efficiency”. The “catalytic efficiency (kcat/KM) for high affinity substrates” value in series [2] is “indistinguishable”. Moreover, the “postburst linear rate (primarily reflecting k3)” value in series [4] is listed as “greatly reduced”.

B4: ScCdc14^1-374: catalytic domain alone lacking the SLiCE motif (protein)
chain: MRRSVYLDNTIEFLRGRVYLGAYDYTPEDTDELVFFTVEDAIFYNSFHLDFGPMNIGHLYRFAVIFHEILNDPENANKAVVFYSSASTRQRANAACMLCCYMILVQAWTPHQVLQPLAQVDPPFMPFRDAGYSNADFEITIQDVVYGVWRAKEKGLIDLHSFNLESYEKYEHVEFGDFNVLTPDFIAFASPQEDHPKGYLATKSSHLNQPFKSVLNFFANNNVQLVVRLNSHLYNKKHFEDIGIQHLDLIFEDGTCPDLSIVKNFVGAAETIIKRGGKIAVHCKAGLGRTGCLIGAHLIYTYGFTANECIGFLRFIRPGMVVGPQQHWLYLHQNDFREWKYTTRISLKPSEAIGGLYPLISLEEYRLQKKKLKD
modifications: left off: 6xHis, N-terminal, state not stated
Consider B4, for which the “decrease in kcat compared to ScCdc14^1-449” value in series [1] (DiFMUP, steady state) turned out to be 16 fold.

As usually defined, the kcat is the number of substrate molecules converted per active site and unit of time at saturation.
